# PMC8310136
# B1: ssDNA competitor (ssDNA)
# DNA: TATGCGGGCGAAACTTCTGGGAATAGTCCTGACAACCCCTATTGCGATCAGCTCTTTTGCTAGCTCG
# B2: dsDNA competitor (dsDNA)
# DNA 1: TATGCGGGCGAAACTTCTGGGAATAGTCCTGACAACCCCTATTGCGATCAGCTCTTTTGCTAGCTCG
# DNA 2: CGAGCTAGCAAAAGAGCTGATCGCAATAGGGGTTGTCAGGACTATTCCCAGAAGTTTCGCCCGCATA
# Biological target: NT*MNV VPg (Murine norovirus (MNV), UniProt Q80J95 871-994)
# Test: competition; 100-fold excess over labelled PP9 RNA
# Conditions: protein: recombinant, tags: N-terminal His6-StrepII-spidroin NT*-enterokinase site-GGSRS linker, label: none
binder,measurement,setting,value
B1,binding result,,no binding
B2,binding result,blunt,no binding
